For one assay, the target named is T1, human ROR1-Fc (CHO) (human).
T1 construct: ROR1 extracellular domain fused to human Fc; also called huROR1-Fc; hROR1-Fc
Kind of assay: ELISA on coated human ROR1-hFc, one concentration (5 µg/mL). As for the experimental part:
(§1) In brief, ELISA method as follows. Wells coated with 100ng of ROR1-hFc antigen and incubated, covered, at room temperature for 2 hr. Plates washed 3×400ul per well with PBST (PBS+0.05% Tween 20 (v/v)), then blocked with 4% skimmed milk powder (w/v) in PBST for 1 hour at 37° C. Plates washed as before plus additional wash in PBS alone. HisMyc-tagged binding proteins were diluted in 4% milk PBST and incubated overnight at 4° C. Plates washed 3× with PBST, 3× PBS and binding detected using appropriate secondary detection antibody in 4% milk PBST, room temperature 1 hour. Secondary antibodies used include: [0658] Anti-c-Myc, HRP (Invitrogen #R951-25) [0659] Mouse anti-polyHis, HRP (Sigma #A7058)

The next assay has as its target T2, human ROR2-Fc (CHO) (human).
T2 construct: also called hROR2-hFc
Kind of assay: ELISA; hROR2-hFc coated. On the procedure: as §1
The same ELISA procedure was employed as described above but with either mROR1-hFc or hROR2-hFc coated on the plates.
Background: In an ELISA, binding on a coated surface is turned into a signal by an enzyme label.

Changes are numbered by the printed parent chain.

T1 sequence (chain, as listed by the source limits assumed): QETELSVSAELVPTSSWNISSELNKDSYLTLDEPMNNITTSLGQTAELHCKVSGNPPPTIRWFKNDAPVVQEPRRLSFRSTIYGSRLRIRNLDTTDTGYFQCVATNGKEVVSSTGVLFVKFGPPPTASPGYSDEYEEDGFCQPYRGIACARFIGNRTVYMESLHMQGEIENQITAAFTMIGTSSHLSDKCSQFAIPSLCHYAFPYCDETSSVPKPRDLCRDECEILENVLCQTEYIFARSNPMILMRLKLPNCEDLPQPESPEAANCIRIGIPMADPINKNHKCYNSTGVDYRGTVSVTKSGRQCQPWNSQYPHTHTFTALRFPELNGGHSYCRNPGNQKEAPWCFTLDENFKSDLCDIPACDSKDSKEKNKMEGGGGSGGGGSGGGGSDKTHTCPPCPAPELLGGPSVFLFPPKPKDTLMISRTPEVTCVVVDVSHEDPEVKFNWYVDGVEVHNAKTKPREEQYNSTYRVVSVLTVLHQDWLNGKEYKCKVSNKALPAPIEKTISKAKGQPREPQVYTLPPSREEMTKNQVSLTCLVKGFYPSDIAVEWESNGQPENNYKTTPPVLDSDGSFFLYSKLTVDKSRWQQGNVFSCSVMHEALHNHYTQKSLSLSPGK
T2 sequence (chain, as listed by the source limits assumed): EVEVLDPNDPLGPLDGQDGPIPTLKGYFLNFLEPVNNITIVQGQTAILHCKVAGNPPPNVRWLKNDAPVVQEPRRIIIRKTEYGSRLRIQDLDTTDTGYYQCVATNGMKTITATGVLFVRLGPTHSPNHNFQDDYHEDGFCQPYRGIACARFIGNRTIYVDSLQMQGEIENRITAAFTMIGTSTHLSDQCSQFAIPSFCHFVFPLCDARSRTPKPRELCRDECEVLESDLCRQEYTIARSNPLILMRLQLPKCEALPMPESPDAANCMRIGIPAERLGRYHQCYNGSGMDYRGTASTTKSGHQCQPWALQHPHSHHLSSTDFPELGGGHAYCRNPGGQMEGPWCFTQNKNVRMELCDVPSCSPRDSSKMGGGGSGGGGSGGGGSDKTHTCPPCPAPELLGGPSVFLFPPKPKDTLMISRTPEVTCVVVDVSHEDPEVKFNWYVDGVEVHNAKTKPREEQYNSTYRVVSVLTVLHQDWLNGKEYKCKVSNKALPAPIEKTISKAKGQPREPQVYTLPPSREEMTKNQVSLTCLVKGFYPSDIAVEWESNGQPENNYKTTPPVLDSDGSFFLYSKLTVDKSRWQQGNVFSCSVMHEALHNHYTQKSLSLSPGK

B1: AA5.S (VNAR)
VNAR: TRVDQSPSSLSASVGDRVTITCVLTGTGYGLYSSTYWYRKNPGSSDEERIIIGGRYSESVNKGSKSFTLTISSLQPEDSATYYCRAREARHPWLRQWYDGAGTKVEIKQ
notes: P3A1 G1 loop variant from the selection on streptavidin beads; also called P3A1 G1 loop variant AA5.S
Consider B1, for which, in the assay with human ROR1-Fc (CHO), the binding result is on record as “binds”.

B2: NAC6.S (VNAR)
VNAR: B1 VNAR with G26D, G28R, G30A, S45T, I51S
notes: VNAR, P3A1 G1 loop variant; entry includes the HisMyc tag; also called P3A1 G1 NAC6.S; P3A1G1 NAC6.S
Take B2: the binding result in the assay with human ROR2-Fc (CHO) was “no binding”.

B3: AC5.S (VNAR)
VNAR: B1 VNAR with G26D, G28S, D46N, E47K, I50M, I51S, G53S
notes: P3A1 G1 loop variant from the immunotube selection; also called P3A1 G1 loop variant AC5.S
Consider B3, for which the binding result with human ROR1-Fc (CHO) is given as “binds”.

B4: AE3.S (VNAR)
VNAR: B1 VNAR with G28R, I51S, G53S, S64T
notes: VNAR, P3A1 G1 loop variant; entry includes the HisMyc tag; also called P3A1 G1 AE3.S; P3A1G1 AE3.S
Turning to B4, the binding result in the assay with human ROR2-Fc (CHO) is recorded as “no binding”.

(Values after US20250269051A1 (ALMAC DISCOVERY, published 2025).)
